Experimental data reported in the supplement of paper PMC9732359.
± gives the uncertainty stated by the source.

Test: protein stability index of a GFP-peptide fusion (yeast GPS) (PSI 1-4); higher = more stable; sorted into four equal gates, so the index is relative within each strain
Settings: doa10∆
Summary of the method: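 The protein stability index of a peptide was calculated by multiplying its read frequency in each gate by that gate's number and adding the products. The peptides were tiled 17-residue stretches of yeast proteins, fused downstream of GFP on a Cherry-expressing plasmid and carried in yeast as a pooled library. Mid-log cultures in leucine-free medium were sorted into four equal gates by GFP/Cherry ratio, and each gate's plasmids were PCR-amplified and Illumina-sequenced.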
MILKLVCQVTKFGLLLQ [ECM29] gave a protein stability index of 2.12 ± 0.066.
With MIQKVMEYLKSSKSLDL [RPN5] the protein stability index was 2.6 ± 0.051.
MKDKEINIQKYNNNTIR [CSI1] showed a protein stability index of 2.42 ± 0.22.
For MKEDGLSFVDIVLSKAA [SIR4], the protein stability index was 1.88 ± 0.1.
For MKLKLMIVYYKDAISFI [YCS4], the protein stability index was 1.82 ± 0.053.
For MKLVPSIPPATIETFNE [RPB5], the protein stability index was 2.41 ± 0.053.
With MKMDKSPTESYSDIGGL [RPT2] the protein stability index was 3.21 ± 0.096.
MKPEVEQELAHILLTEL [FAS2] showed a protein stability index of 3.006 ± 0.028.
Work on MKPSDNISTNTNIHEPQ [SSN2] yielded a protein stability index of 3.19 ± 0.042.
With MKVEIDSFSGAKIYPGR [RPL24A] the protein stability index was 3.35 ± 0.072.
For MKWDFAKDIKGYGTQKI [PRE4], the protein stability index was 2.15 ± 0.064.
With MKWSAIPFQTLYRSIES [YJL039C/NUP192] the protein stability index was 1.53 ± 0.046.
Sequence MKYIQTEQQIEVPEGVT [RPL9A] has a protein stability index of 2.54 ± 0.089.
Work on MKYLAAYLLLNAAGNTP [RPP2A] yielded a protein stability index of 1.88 ± 0.031.
MKYLAAYLLLVQGGNAA [RPP2B] showed a protein stability index of 1.53 ± 0.051.
With MLASQANGGSTIISPHK [DSN1] the protein stability index was 3.42 ± 0.17.
For MLCTADTPEGEACGLVK [RET1], the protein stability index was 1.47 ± 0.1.
MLLGTDLCSLKPYVDRF [DIS3] gave a protein stability index of 2.62 ± 0.06.
MLLLNDSVENSSNILED [SRB8] gave a protein stability index of 2.65 ± 0.078.
For MLMSKIGDVDGLIVNPV [POP5], the protein stability index was 2.57 ± 0.051.
In the case of MLSILEIFKKGYIKNNK [POP6], the protein stability index is reported as 2.63 ± 0.11.
In the case of MLWNLAAKKAMYTLSAQ [ASC1], the protein stability index is reported as 2.79 ± 0.069.
MMENYQNISPVYSVDPL [PRP8] gave a protein stability index of 2.08 ± 0.049.
Work on MMMQQQLKNVQLDSYLV [MED2] yielded a protein stability index of 2.21 ± 0.037.
With MNGNTNANTVFAGSNNQ [YOR098C/NUP1] the protein stability index was 2.63 ± 0.12.
MNGRSLTYAQQQLNKQR [SNF6] gave a protein stability index of 3.28 ± 0.26.
MNKDQAEKYQERSLRQK [SNM1] showed a protein stability index of 3.3 ± 0.089.
MPPKKSWRNITNLSGGE [SMC4] showed a protein stability index of 2.69 ± 0.12.
Work on MPPKQQLSKAAKAAAAL [RPS25A] yielded a protein stability index of 1.73 ± 0.048.
For MPQSGTGVSVEAVDDVF [RPN11], the protein stability index was 3.35 ± 0.11.
In the case of MPRAPRTYSKTYSTPKR [RPS9A], the protein stability index is reported as 2.3 ± 0.064.
In the case of MQANTNALRRNLLKDEG [SSN3], the protein stability index is reported as 2.94 ± 0.11.
Sequence MQDPDGIDINTKIFNSV [YCG1] has a protein stability index of 2.93 ± 0.21.
In the case of MQRHVKVDGKVRTDTTY [RPS4A], the protein stability index is reported as 3.26 ± 0.1.
MRILSNDITNLQLSKTP [SRB8] showed a protein stability index of 2.59 ± 0.058.
With MRSTSILTEHLGYPPIS [MTW1] the protein stability index was 2.9 ± 0.076.
Work on MSGAAAASAAGYDRHIT [SCL1] yielded a protein stability index of 3.08 ± 0.24.
For MSLPATFDLTPEDAQLL [RPS0A], the protein stability index was 2.75 ± 0.079.
MSLSNKTVKELRQLLKE [RRI1] gave a protein stability index of 1.95 ± 0.094.
With MSREGFQIPTNLDAAAA [RPC10] the protein stability index was 1.28 ± 0.1.
In the case of MSRPQVTVHSLTGEATA [RPL4A], the protein stability index is reported as 1.59 ± 0.09.
MSSAAEKKPASKAPAEK [HTB2] gave a protein stability index of 2.74 ± 0.064.
With MSSTTPKLESVKWQYDP [SNF12] the protein stability index was 3.16 ± 0.065.
MSVQDTKAVEFSMGHIR [MED4] gave a protein stability index of 3.24 ± 0.11.
MTLKEMYQMITMGGNAE [SMC4] gave a protein stability index of 2.72 ± 0.065.
With MTMLTPNYLHLVSSYLN [YML103C/NUP188] the protein stability index was 1.82 ± 0.039.
With MTMQVAVPRDELGRSNY [FAS1] the protein stability index was 2.7 ± 0.085.
For MTTFRFCRDCNNMLYPR [RPB9], the protein stability index was 2.78 ± 0.14.
With MTTSAVSPTVGKLFSDI [YIL149C/MLP2] the protein stability index was 3.1 ± 0.073.
Sequence MTTWRKLYTKELSVTGS [YMR129W/POM152] has a protein stability index of 2.06 ± 0.078.
